Data reported in IntAct's records for PubMed 20608975.
Values belong to the substance of their own block, whether it stands above or below them.

What was measured:
gors2_rat Gorasp2 [1] = target: gors2_rat Gorasp2 (UniProt Q9R064)
gors2_rat Gorasp2 [2] = target: gors2_rat Gorasp2 (UniProt Q9R064); remark: listed apart in the source
mmp14_human MMP14 = mmp14_human MMP14 (UniProt P50281)
gors2_rat Gorasp2 [3] = target: gors2_rat Gorasp2 (UniProt Q9R064); remark: listed apart in the source
gors2_rat Gorasp2 [4] = target: gors2_rat Gorasp2 (UniProt Q9R064); remark: listed apart in the source
gors2_rat Gorasp2 [5] = target: gors2_rat Gorasp2 (UniProt Q9R064); remark: listed apart in the source
gors2_rat Gorasp2 [6] = target: gors2_rat Gorasp2 (UniProt Q9R064); remark: listed apart in the source

- effect of a mutation on the interaction (gors2_rat Gorasp2 [1]): decreasing interaction
Substance: Matrix metalloproteinase-14 (Homo sapiens) (from UniProt P50281) R570A

- effect of a mutation on the interaction (gors2_rat Gorasp2 [2]): decreasing interaction
Substance: Matrix metalloproteinase-15 (Homo sapiens), P51511 Y660A

- effect of a mutation on the interaction (gors2_rat Gorasp2 [1]): decreasing interaction
Substance: Matrix metalloproteinase-14 (Homo sapiens) (from UniProt P50281) P568A

- effect of a mutation on the interaction (mmp14_human MMP14): disrupting interaction
Substance: Golgi reassembly-stacking protein 2 (Rattus norvegicus (Rat)) (from UniProt Q9R064) G2A

- effect of a mutation on the interaction (gors2_rat Gorasp2 [3]): decreasing interaction
Substance: Matrix metalloproteinase-14 (Homo sapiens) (from UniProt P50281) G566A

- effect of a mutation on the interaction (gors2_rat Gorasp2 [4]): decreasing interaction
Substance: Matrix metalloproteinase-14 (Homo sapiens) (from UniProt P50281) L579A

- effect of a mutation on the interaction (gors2_rat Gorasp2 [5]): disrupting interaction
Substance: Matrix metalloproteinase-14 (Homo sapiens) (from UniProt P50281) L571A

- effect of a mutation on the interaction (gors2_rat Gorasp2 [4]): decreasing interaction
Substance: Matrix metalloproteinase-14 (Homo sapiens) (from UniProt P50281) L578A

- effect of a mutation on the interaction (gors2_rat Gorasp2 [3]): decreasing interaction
Substance: Matrix metalloproteinase-14 (Homo sapiens) (from UniProt P50281) H565A

- effect of a mutation on the interaction (gors2_rat Gorasp2 [2]): decreasing interaction
Substance: Matrix metalloproteinase-15 (Homo sapiens), P51511 L659A

- effect of a mutation on the interaction (gors2_rat Gorasp2 [3]): decreasing interaction
Substance: Matrix metalloproteinase-14 (Homo sapiens) (from UniProt P50281) T567A

- effect of a mutation on the interaction (gors2_rat Gorasp2 [1]): decreasing interaction
Substance: Matrix metalloproteinase-14 (Homo sapiens) (from UniProt P50281) R569A

- effect of a mutation on the interaction (gors2_rat Gorasp2 [4]): decreasing interaction
Substance: Matrix metalloproteinase-14 (Homo sapiens) (from UniProt P50281) S577A

- effect of a mutation on the interaction (gors2_rat Gorasp2 [6]): decreasing interaction
Substance: Matrix metalloproteinase-14 (Homo sapiens) (from UniProt P50281) R576A

- effect of a mutation on the interaction (gors2_rat Gorasp2 [5]): disrupting interaction
Substance: Matrix metalloproteinase-14 (Homo sapiens) (from UniProt P50281) Y573A

- effect of a mutation on the interaction (gors2_rat Gorasp2 [2]): decreasing interaction
Substance: Matrix metalloproteinase-15 (Homo sapiens), P51511 L658A

- effect of a mutation on the interaction (gors2_rat Gorasp2 [5]): disrupting interaction
Substance: Matrix metalloproteinase-14 (Homo sapiens) (from UniProt P50281) L572A

- effect of a mutation on the interaction (gors2_rat Gorasp2 [6]): decreasing interaction
Substance: Matrix metalloproteinase-14 (Homo sapiens) (from UniProt P50281) Q575A

- effect of a mutation on the interaction (gors2_rat Gorasp2 [6]): decreasing interaction
Substance: Matrix metalloproteinase-14 (Homo sapiens) (from UniProt P50281) C574A
